In patent publication US20160152725A1 (Memorial Sloan Kettering, published 2016):
Where a chain is given by its changes, count along the chain named. Numbers in names are those of the source.

Tests used:
[1] = biological target: HLA-A2 molecule on the surface of tumor cell lines (human); experiment: flow cytometry on LAN-1 cells (NB)
[2] = biological target: HLA-A2 molecule on the surface of tumor cell lines (human); experiment: flow cytometry on SKNJB cells (NB)
[3] = biological target: HLA-A2 molecule on the surface of tumor cell lines (human); experiment: flow cytometry on SKNLD cells (NB)
[4] = biological target: HLA-A2 molecule on the surface of tumor cell lines (human); experiment: flow cytometry on HepG2 cells (Liver)
[5] = biological target: HLA-A2 molecule on the surface of tumor cell lines (human); experiment: flow cytometry on SKN-JC-1 cells (NB)
[6] = biological target: HLA-A2 molecule on the surface of tumor cell lines (human); experiment: flow cytometry on SKN-JC-2 cells (NB)
[7] = biological target: HLA-A2 molecule on the surface of tumor cell lines (human); experiment: flow cytometry on SW480 cells (Colon)
[8] = biological target: HLA-A2 molecule on the surface of tumor cell lines (human); experiment: flow cytometry on MCF-7 cells (Breast)
[9] = biological target: HLA-A2 molecule on the surface of tumor cell lines (human); experiment: flow cytometry on SKBR3 cells (Breast)
[10] = biological target: HLA-A2 molecule on the surface of tumor cell lines (human); experiment: flow cytometry on K562 cells (Leukemia)
[11] = biological target: HLA-A2 molecule on the surface of tumor cell lines (human); experiment: flow cytometry on SKHEP-1 cells (Liver)
[12] = biological target: HLA-A2 molecule on the surface of tumor cell lines (human); experiment: flow cytometry on Colo 205 cells (Colon)
[13] = biological target: HLA-A2 molecule on the surface of tumor cell lines (human); experiment: flow cytometry on SKOV-3 cells (Ovarian)
[14] = biological target: HLA-A2 molecule on the surface of tumor cell lines (human); experiment: flow cytometry on THP-1 cells (Leukemia)
[15] = biological target: HLA-A2 molecule on the surface of tumor cell lines (human); experiment: flow cytometry on BV-173 cells (Leukemia)
[16] = biological target: HLA-A2 molecule on the surface of tumor cell lines (human); experiment: flow cytometry on Molt-4 cells (Leukemia)
[17] = biological target: HLA-A2 molecule on the surface of tumor cell lines (human); experiment: flow cytometry on OVCAR-3 cells (Ovarian)
[18] = biological target: HLA-A2 molecule on the surface of tumor cell lines (human); experiment: flow cytometry on BA25-17 cells (Leukemia)
[19] = biological target: HLA-A2 molecule on the surface of tumor cell lines (human); experiment: flow cytometry on BA25-69 cells (Leukemia)
[20] = biological target: HLA-A2 molecule on the surface of tumor cell lines (human); experiment: flow cytometry on JMN cells (Mesothelioma)
[21] = biological target: HLA-A2 molecule on the surface of tumor cell lines (human); experiment: flow cytometry on SKMEL-5 cells (Melanoma)
[22] = biological target: HLA-A2 molecule on the surface of tumor cell lines (human); experiment: flow cytometry on U87 cells (Glioblastoma)
[23] = biological target: HLA-A2 molecule on the surface of tumor cell lines (human); experiment: flow cytometry on U251 cells (Glioblastoma)
[24] = biological target: HLA-A2 molecule on the surface of tumor cell lines (human); experiment: flow cytometry on U2 OS cells (Osteosarcoma)
[25] = biological target: HLA-A2 molecule on the surface of tumor cell lines (human); experiment: flow cytometry on OVCAR3-pp65 cells (Ovarian)
[26] = biological target: HLA-A2 molecule on the surface of tumor cell lines (human); experiment: flow cytometry on HTB37-pp65/GFP cells (Colon)
[27] = biological target: HLA-A2 molecule on the surface of tumor cell lines (human); experiment: flow cytometry on K562-HLA-A2 cells (Leukemia)
[28] = biological target: HLA-A2 molecule on the surface of tumor cell lines (human); experiment: flow cytometry on Caco-2 (HTB-37) cells (Colon)
[29] = biological target: HLA-A2 molecule on the surface of tumor cell lines (human); experiment: flow cytometry on SK-ES-1 cells (Ewing's sarcoma)
[30] = biological target: HLA-A2 molecule on the surface of tumor cell lines (human); experiment: flow cytometry on MDA-MB-231(HTB-26) cells (Breast)
[31] = biological target: HLA-A2 molecule on the surface of tumor cell lines (human); experiment: flow cytometry on MDA-MB-361(HTB-27) cells (Breast)
[32] = biological target: HLA-A2 molecule on the surface of tumor cell lines (human); experiment: flow cytometry on MDA-MB-468(HTB-132) cells (Breast)
[33] = biological target: HLA-A2 molecule on the surface of tumor cell lines (human); experiment: flow cytometry on NCI-H345 cells (Small cell lung cancer)
[34] = biological target: HLA-A2 molecule on the surface of tumor cell lines (human); experiment: flow cytometry on NCI-H522 cells (Non-small cell lung cancer)
[35] = biological target: HLA-A2 molecule on the surface of tumor cell lines (human); experiment: flow cytometry on JN-DSRCT cells (Desmoplastic small round cell tumor)
[36] = biological target: T1, biotinylated HLA-A2/WT1126 (…) monomer (human, biotin at a specific biotinylation site at the C-terminus); experiment: SPR (Biacore)
T1 construct: also called HLA-A2-WT1 monomer; WT1126/HLA-A2
Method: (§1) Kinetics and affinities of various antibodies and WT1₁₂₆/HLA-A2 were analyzed by surface plasmon resonance technology using a Biacore T100 instrument (GE healthcare). Biotinylated WT1₁₂₆/HLA-A2 was captured by streptavidin-fusion protein on a sensor chip (CM5). A control reference surface was prepared for nonspecific binding and refractive index changes. For analysis of the kinetics of interactions, varying concentrations of antibodies were injected at flow rate of 30 μl/min using a running buffer containing 10 mM HEPES, 150 mM NaCl, 3 mM EDTA, and 0.05% Surfactant P-20 (pH 7.4). The association and dissociation phase data were fitted simultaneously to a 1:1 model by using BIAevaluation 3.2. All the experiments were done at 25° C.

[37] = biological target: T2, HLA-A2/pp65 (…) on T2 cells (human; human cytomegalovirus); experiment: flow cytometry on peptide-loaded T2 cells
T2 construct: also called T2 cells loaded with control peptide pp65

[38] = biological target: T1, biotinylated HLA-A2/WT1126 (…) monomer; experiment: SPR Biacore T100; biotinylated pMHC captured, antibody injected; 1:1 fit
Method: as §1

[39] = biological target: HLA-A2/WT1 187-195 (…) complex (human, biotin at a specific biotinylation site at the C-terminus); experiment: ELISA on wells coated with the named HLA-A2/peptide monomer, HRP anti-Flag detection, OD 490 nm
[40] = biological target: HLA-A2/WT1 235-243 (…) complex (human, biotin at a specific biotinylation site at the C-terminus); experiment: as above
HLA-A2/CDR2 (…) tetramer [41] = biological target: T3, HLA-A2/CDR2 (…) tetramer (human); experiment: flow cytometry of scFv-displaying yeast, negative control HLA-A2-CDR2 tetramer (y, Binding) against scFv expression (x)
T3 construct: Peptide from cerebellar degeneration-related protein 2; also called negative control (HLA-A2-CDR2) tetramer; irrelevant HLA-A2/CDR2-derived peptide

[42] = biological target: T1, biotinylated HLA-A2/WT1126 (…) monomer; experiment: ELISA: wells coated with HLA-A2-WT1 ([..]) monomer, serially diluted scFv, HRP anti-Flag detection, OD 490 nm
Method: (§2) The specificity of individual phage clones, soluble scFv and scFv-Fc antibodies was assessed by ELISA at RT with indirectly coated HLA-A2/peptide complexes. Vinyl flat bottom microtiter plates (Thermo Fisher) were used for ELISA assays. Plates were initially coated overnight at 4° C. with BSA-biotin (10 g/ml; 50 μl/well). The next day, the contents were discarded and the plates incubated at RT with streptavidin (10 g/ml; 50 μl/well) for 1 h. The contents were discarded and the plates incubated with recombinant biotinylated HLA-A2/peptide complexes (5 μg/ml; 50 μl/well) at RT for 1 h. The plates were then incubated with 2% milk PBS (150 μl/well) at RT for 1 h. After blocking, the plates were washed 3 times with PBS and then incubated with bacterial supernatant from their respective HB2151 culture plate wells, purified scFv, or purified scFv-Fc at RT for 1 h. After the contents were discarded, the plates were washed 5 times with PBS, and then incubated with a horse radish peroxidase (HRP) conjugated mouse-anti-Flag tag antibody (1:5000 dilution, Sigma Aldrich) to detect the scFv, or a HRP conjugated goat-anti-human Fc antibody (0.5 μg/ml, Jackson Immunoresearch Laboratories) to detect the scFv-Fc. […]

HLA-A2/CDR2 (…) tetramer [43] = biological target: T3, HLA-A2/CDR2 (…) tetramer; experiment: flow cytometry of CAR NK-92 cells, control HLA-A2/CDR2 tetramer (y) against GFP (x)
[44] = biological target: T1, biotinylated HLA-A2/WT1126 (…) monomer; experiment: ELISA: wells coated with HLA-A2-WT1 (…) monomer, serially diluted scFv, HRP anti-Flag detection, OD 490 nm
Method: as §2

HLA-A2 on T2 cells = biological target: T4, HLA-A2 on T2 cells (human); experiment: T2 cells pulsed with peptide, staining with anti-HLA-A2 BB7.2
T4 construct: No peptide added; also called T2 cells alone; T2 cells without peptide

Molecule: BB7.2 (antibody)
- Ratio (BB7.2/isotype) of mean fluorescence intensity [1]: 4.5
- Ratio (BB7.2/isotype) of mean fluorescence intensity [2]: 6.4
- Ratio (BB7.2/isotype) of mean fluorescence intensity [3]: 0.9
- Ratio (BB7.2/isotype) of mean fluorescence intensity [4]: 14.4
- Ratio (BB7.2/isotype) of mean fluorescence intensity [5]: 86.8
- Ratio (BB7.2/isotype) of mean fluorescence intensity [6]: 53.3
- Ratio (BB7.2/isotype) of mean fluorescence intensity [7]: 40.5
- Ratio (BB7.2/isotype) of mean fluorescence intensity [8]: 9.9
- Ratio (BB7.2/isotype) of mean fluorescence intensity [9]: 1.1
- Ratio (BB7.2/isotype) of mean fluorescence intensity [10]: 1.1
- Ratio (BB7.2/isotype) of mean fluorescence intensity [11]: 28.3
- Ratio (BB7.2/isotype) of mean fluorescence intensity [12]: 32.6
- Ratio (BB7.2/isotype) of mean fluorescence intensity [13]: 1
- Ratio (BB7.2/isotype) of mean fluorescence intensity [14]: 53.9
- Ratio (BB7.2/isotype) of mean fluorescence intensity [15]: 209
- Ratio (BB7.2/isotype) of mean fluorescence intensity [16]: 1.1
- Ratio (BB7.2/isotype) of mean fluorescence intensity [17]: 7.8
- Ratio (BB7.2/isotype) of mean fluorescence intensity [18]: 118
- Ratio (BB7.2/isotype) of mean fluorescence intensity [19]: 114
- Ratio (BB7.2/isotype) of mean fluorescence intensity [20]: 165
- Ratio (BB7.2/isotype) of mean fluorescence intensity [21]: 32.1
- Ratio (BB7.2/isotype) of mean fluorescence intensity [22]: 77.5
- Ratio (BB7.2/isotype) of mean fluorescence intensity [23]: 16.2
- Ratio (BB7.2/isotype) of mean fluorescence intensity [24]: 21.7
- Ratio (BB7.2/isotype) of mean fluorescence intensity [25]: 10
- Ratio (BB7.2/isotype) of mean fluorescence intensity [26]: 10.9
- Ratio (BB7.2/isotype) of mean fluorescence intensity [27]: 28.8
- Ratio (BB7.2/isotype) of mean fluorescence intensity [28]: 26.8
- Ratio (BB7.2/isotype) of mean fluorescence intensity [29]: 7.7
- Ratio (BB7.2/isotype) of mean fluorescence intensity [30]: 111
- Ratio (BB7.2/isotype) of mean fluorescence intensity [31]: 0.9
- Ratio (BB7.2/isotype) of mean fluorescence intensity [32]: 1.1
- Ratio (BB7.2/isotype) of mean fluorescence intensity [33]: 6.2
- Ratio (BB7.2/isotype) of mean fluorescence intensity [34]: 15.8
- Ratio (BB7.2/isotype) of mean fluorescence intensity [35]: 5.1

B1: Clone45 scFv (scFv)
scFv: EVQLLESGGGLVQPGGSLRLSCAASGFTFSSYAMSWVRQAPGKGLEWVSQIDPWGQETLYADSVKGRFTISRDNSKNTLYLQMNSLRAEDTAVYYCAKLTGRFDYWGQGTLVTVSSGGGGSGGGGSGGGGSTDIQMTQSPSSLSASVGDRVTITCRASQSISSYLNWYQQKPGKAPKLLIYSASQLQSGVPSRFSGSGSGTDFTLTISSLQPEDFATYYCQQGPGTPNTFGQGTKVEIKRA
notes: also called scFv Clone45; parental Clone45
- Kd [36]: 300 nM
- binding result [37]: no binding
- Kd [38]: 263 nM
- binding result [39]: no binding
- binding result [40]: no binding
- binding result (HLA-A2/CDR2 (…) tetramer [41]): no binding

B2: S3.1 scFv (scFv)
scFv: B1 scFv with Q50L, R87G, S209N
notes: Soluble scFv, Ni-NTA purified, detected with anti-Flag
- Kd [38]: 12.9 nM
- binding result [39]: no binding
- binding result [40]: no binding
- EC50 (read off the curve) [42]: ~60 nM

B3: S3.3 scFv (scFv)
scFv: B1 scFv with Q50L, D133N, Q185L, S197N
notes: as for B2
- Kd [38]: 2.43 nM
- binding result [39]: no binding
- binding result [40]: no binding
- EC50 (read off the curve) [42]: ~40 nM

B4: Q2L-CAR (other)
chain: B1 scFv with Q50L, Q185L
notes: Chimeric antigen receptor on the surface of human T cells or NK-92-MI cells; also called anti-HLA-A2/WT1126 CAR; NK-92-MI-scFv(Q2L); not shown: hinge region, CD8 alpha transmembrane domain, 4-1BB and CD3 zeta chain
- binding result (HLA-A2/CDR2 (…) tetramer [43]): no binding

B5: Q1L scFv (scFv)
scFv: B1 scFv with Q50L
notes: Clone45 with VH-Q50L; Soluble scFv; also called scFv Q1L
- Kd [38]: 58.3 nM
- koff [38]: 0.0055 s⁻¹
- kon [38]: 94300 M⁻¹ s⁻¹

B6: Q2L scFv (scFv)
scFv: B1 scFv with Q50L, Q185L
notes: Clone45 with VH-Q50L and VL-Q53L; Soluble scFv; also called scFv Q2L
- Kd [38]: 3.08 nM
- binding result [39]: no binding
- binding result [40]: no binding
- EC50 (read off the curve) [44]: ~100 nM

B7: S3.6 scFv (scFv)
scFv: B1 scFv with Q50L, S163N, D202V
notes: as for B2
- Kd [38]: 14.1 nM
- binding result [39]: no binding
- binding result [40]: no binding

B8: WT1126 peptide (RMFPNAPYL) by itself (peptide)
peptide: RMFPNAPYL
notes: also called WT1 peptide
- binding result (HLA-A2 on T2 cells): binds

B9: WT1126-Tyr8Ala peptide (peptide)
peptide: RMFPNAPAL
notes: also called A8
- binding result (HLA-A2 on T2 cells): binds

B10: WT1126-Arg1Ala peptide (peptide)
peptide: AMFPNAPYL
notes: also called A1
- binding result (HLA-A2 on T2 cells): binds

B11: WT1126-Asn5Ala peptide (peptide)
peptide: RMFPAAPYL
notes: also called A5
- binding result (HLA-A2 on T2 cells): binds
